# Results reported in US20250066422A1.
# Tests used:
# Assay in all cases: ProImmune REVEAL MHC-peptide binding assay
# HLA-DR4 (human) = target: HLA-DR4 (human)
# HLA-DR7 (human) = target: HLA-DR7 (human)
# HLA-DR1 (human) = target: HLA-DR1 (human)
# HLA-DR2 (human) = target: HLA-DR2 (human)
# HLA-DR5 (human) = target: HLA-DR5 (human)
Binder,Relative Binding Score (% of positive control) (HLA-DR4 (human)),Relative Binding Score (% of positive control) (HLA-DR7 (human)),Relative Binding Score (% of positive control) (HLA-DR1 (human)),Relative Binding Score (% of positive control) (HLA-DR2 (human)),Relative Binding Score (% of positive control) (HLA-DR5 (human))
"TLGEFLKLDRERAKN (peptide, from a related filing) [BIR-002]",6.12,0.27,40.1,0.05,104
"TFSYVDPVITSISPKYG (peptide, from a related filing) [MET-005]",5.89,3.69,0.87,0.28,0.12
